According to patent US11834553B2, “Alkoxylation methods” (priority 2009, dated 2023):

Experiments:
[1] = K2CO3 in CH3OH, 20° C., after 45 minutes
Method: (§1) Experiments were performed to determine the fate of the irinotecan-containing PEG species in 4-arm-PEG-Gly-Irino-20K under transesterification (K2CO3 in CH3OH, 20° C.) and aqueous hydrolysis (pH 10, 20° C.) conditions.

[2] = pH 10, 20° C., within 24 hours
Method: as §1

[3] = Stress stability studies of 4-arm-PEG-Gly-Irino-20K (Example 3); format: physicochemical; conditions: summary of stress stability studies
Method: The product formed in Example 1, 4-arm-PEG-Gly-Irino-20K, compound 5, (approximately 1-2 g) was weighed into PEG PE ‘whirl top’ bags and placed into another ‘whirl top’ bag in order to simulate the API packaging conditions. In one study (results shown in FIG. 1), samples were placed in an environmental chamber at 25° C./60% RH for 4 weeks. In another study, samples were placed in an environmental chamber at 40° C./75% RH for up to several months (results shown in FIG. 2 and FIG. 3). Samples were taken and analyzed on a periodic basis over the course of the studies.

pentaerythritolyl-4-arm-(PEG-1-methylene-2-oxo-vinylamino acetate linked-irinotecan) [4-arm-PEG-Gly-Irino-20K]
transesterification reaction, completion [1]: > 99%
aqueous hydrolysis reaction, completion [2]: > 99%
overall stability compared with free base and hydrochloride salt [3]: greater stability than either the free base or hydrochloride salt
